Laboratory results taken from patent publication US20240092867A1 (UNIVERSITY OF CHICAGO, published 2024).

Experiments:
[1] = target: T1, vascular endothelial growth factor (VEGF)-A121 (human, UniProt P15692-9 27-147); test: ELISA, HBD peptide coated
T1 construct: mature; Purchased in mature form, not glycosylated
T1 sequence (looked up): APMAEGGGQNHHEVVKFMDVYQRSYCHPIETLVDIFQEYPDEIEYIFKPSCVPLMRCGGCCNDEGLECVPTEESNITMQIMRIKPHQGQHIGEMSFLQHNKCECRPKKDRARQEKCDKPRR
Description: (§1) ELISA tests were performed as described above. […] After blocking with 2% BSA solution containing PBS-T, 1 μg/mL of the recombinant human proteins VEGF-A121, VEGF-A165, PlGF-1, PlGF-2, PDGF-BB, FGF-2, CXCL-12α and CXCL-12γ were added. 1 μg/mL of BSA served as non-binding protein control. Bound GF or chemokine was detected with biotinylated antibodies for human VEGF-A, PlGF, PDGF-BB, FGF-2, or CXCL-12 (R & D Systems). The antibodies were detected by streptavidin-HRP (R & D Systems). Color development and the absorbance measurement were done as described above.

[2] = target: T2, placental growth factor (PlGF)-1 (human, UniProt P49763-2 19-149); test: ELISA, HBD peptide coated
T2 construct: mature; Purchased in mature form
T2 sequence (looked up): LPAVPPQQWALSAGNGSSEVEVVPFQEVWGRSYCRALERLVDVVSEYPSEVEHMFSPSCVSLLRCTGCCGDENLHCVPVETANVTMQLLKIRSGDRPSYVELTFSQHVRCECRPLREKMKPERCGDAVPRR
Description: as §1

[3] = target: T3, human plasma-derived vWF (human, UniProt P04275 764-2813); test: ELISA, vWF coated 50 nM, VEGF-A 1 µg/mL
T3 construct: mature; also called plasma-derived purified vWF; von Willebrand factor
Description: (§2) ELISA was performed as previously reported1. […] After blocking with 2% BSA solution containing PBS-T, 1 μg/mL of recombinant human VEGF-A121 (PeproTech), recombinant human VEGF-A145 (R & D Systems), or recombinant human VEGF-A165 (PeproTech) was added. Bound VEGF-A was detected with 1 μg/mL of mouse anti-human VEGF-A antibody (clone: 26503, R & D systems). After 60 min of incubation, horseradish peroxidase (HRP) conjugated goat anti-mouse antibody (1:2000 dilution, Dako) was added and incubated for another 60 min. Color development and the absorbance measurement were done as described above.

[4] = target: T4, recombinant human vWF A1 domain (human, UniProt P04275 1261-1468, limits assumed); test: ELISA, domain coated 50 nM, VEGF-A 1 µg/mL
T4 construct: domain: A1; also called vWF A1 recombinant protein; recombinant A1 domain
Description: as §2

[5] = target: T5, recombinant human vWF A3 domain (human, UniProt P04275 1683-1874); test: ELISA, domain coated 50 nM
T5 construct: domain: A3
Description: as §2

[6] = target: T6, recombinant human vWF A2 domain (human, UniProt P04275 1498-1665); test: ELISA, domain coated 50 nM
T6 construct: domain: A2
Description: as §2

[7] = target: T7, bovine type I collagen (bovine, UniProt P02453 178-1191; P02465 89-1102); test: ELISA on coated bovine type I collagen (10 µg/mL), FabCol titrated 0.01-30 nM, HRP-anti-human Fab; table headed 'Estimated KD (nM)' [panel C]
T7 construct: PureCol, Advanced BioMatrix; coated on the plate; also called collagen I; PureCol
T7 sequence (P02453 178-1191, chain 1 of 2): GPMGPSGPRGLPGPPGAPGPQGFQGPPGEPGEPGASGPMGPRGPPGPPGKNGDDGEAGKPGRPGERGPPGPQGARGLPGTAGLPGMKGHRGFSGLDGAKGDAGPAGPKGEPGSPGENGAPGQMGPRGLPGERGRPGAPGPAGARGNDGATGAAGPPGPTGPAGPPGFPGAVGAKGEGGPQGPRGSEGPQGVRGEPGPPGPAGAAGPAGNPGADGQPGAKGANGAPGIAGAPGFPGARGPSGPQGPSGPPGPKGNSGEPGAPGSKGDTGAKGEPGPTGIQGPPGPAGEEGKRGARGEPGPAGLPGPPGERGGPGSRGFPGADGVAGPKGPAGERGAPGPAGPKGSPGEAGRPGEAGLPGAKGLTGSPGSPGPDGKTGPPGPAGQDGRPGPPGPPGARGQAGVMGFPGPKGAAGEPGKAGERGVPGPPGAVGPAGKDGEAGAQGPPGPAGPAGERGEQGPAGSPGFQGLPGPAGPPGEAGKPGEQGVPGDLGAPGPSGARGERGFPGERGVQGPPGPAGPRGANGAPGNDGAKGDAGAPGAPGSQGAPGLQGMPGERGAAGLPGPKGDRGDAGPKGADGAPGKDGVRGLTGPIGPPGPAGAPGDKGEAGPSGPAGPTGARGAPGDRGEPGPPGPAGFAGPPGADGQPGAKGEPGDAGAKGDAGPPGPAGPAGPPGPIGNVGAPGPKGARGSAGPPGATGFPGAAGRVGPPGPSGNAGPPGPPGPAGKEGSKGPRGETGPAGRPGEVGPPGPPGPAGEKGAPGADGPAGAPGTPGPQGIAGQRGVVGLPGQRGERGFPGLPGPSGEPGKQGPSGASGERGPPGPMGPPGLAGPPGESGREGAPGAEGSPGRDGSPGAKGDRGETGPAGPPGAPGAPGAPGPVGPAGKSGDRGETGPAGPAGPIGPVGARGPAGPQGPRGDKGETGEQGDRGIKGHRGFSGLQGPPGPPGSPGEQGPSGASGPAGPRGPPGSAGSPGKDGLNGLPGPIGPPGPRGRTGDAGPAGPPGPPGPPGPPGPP
T7 sequence (P02465 89-1102, chain 2 of 2): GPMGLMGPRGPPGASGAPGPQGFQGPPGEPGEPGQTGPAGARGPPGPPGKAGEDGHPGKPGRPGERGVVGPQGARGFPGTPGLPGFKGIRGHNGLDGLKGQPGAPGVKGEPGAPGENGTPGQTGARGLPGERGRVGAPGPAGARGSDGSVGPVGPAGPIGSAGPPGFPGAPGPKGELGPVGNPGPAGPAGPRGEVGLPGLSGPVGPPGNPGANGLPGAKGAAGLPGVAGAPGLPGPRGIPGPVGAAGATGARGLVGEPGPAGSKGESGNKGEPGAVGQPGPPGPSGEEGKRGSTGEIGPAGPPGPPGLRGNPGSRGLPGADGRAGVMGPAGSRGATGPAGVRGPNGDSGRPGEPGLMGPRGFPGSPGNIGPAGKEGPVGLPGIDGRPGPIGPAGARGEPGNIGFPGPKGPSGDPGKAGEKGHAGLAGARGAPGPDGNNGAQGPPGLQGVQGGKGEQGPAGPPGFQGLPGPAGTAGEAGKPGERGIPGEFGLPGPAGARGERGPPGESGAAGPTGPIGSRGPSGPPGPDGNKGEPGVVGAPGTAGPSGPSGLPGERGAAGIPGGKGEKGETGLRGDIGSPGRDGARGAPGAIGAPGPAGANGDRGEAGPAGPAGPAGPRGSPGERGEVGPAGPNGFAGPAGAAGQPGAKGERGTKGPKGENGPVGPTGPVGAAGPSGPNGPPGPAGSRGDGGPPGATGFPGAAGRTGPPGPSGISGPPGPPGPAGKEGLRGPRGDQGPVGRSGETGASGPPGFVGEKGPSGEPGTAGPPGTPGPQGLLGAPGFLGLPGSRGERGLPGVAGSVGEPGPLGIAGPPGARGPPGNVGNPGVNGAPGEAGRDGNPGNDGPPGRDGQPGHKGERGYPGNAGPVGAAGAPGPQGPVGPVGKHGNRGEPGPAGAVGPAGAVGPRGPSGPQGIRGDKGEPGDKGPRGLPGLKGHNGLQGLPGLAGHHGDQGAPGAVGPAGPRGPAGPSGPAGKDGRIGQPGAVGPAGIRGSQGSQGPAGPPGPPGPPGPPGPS
Description: (§3) ELISA plates (NUNC MaxiSorp, ThermoFisher Scientific) were coated overnight with 10 μg/mL of bovine type I collagen (PureCol, Advanced BioMatrix, San Diego CA, USA) at room temperature. The plate was further blocked using 2% bovine serum albumine (BSA) for 2 h at room temperature. […] The plate was washed thrice in PBST, and an horseradish peroxidase-conjugated anti-human Fab antibody (Jackson ImmunoResearch,) was used to detect bound FabCol variants. […] Absorbance at 450 nm was read using […], and corrected using the absorbance at 570 nm. Curve fits and dissociation constant KD were computed using Prism (GraphPad Software Inc., USA).

[8] = target: T7, bovine type I collagen; test: ELISA on coated bovine type I collagen (10 µg/mL), FabCol titrated, HRP-anti-human Fab; table headed 'Estimated KD (nM)' [panel C]
Description: as §3

[9] = target: T8, vascular endothelial growth factor (VEGF)-A165 (human, UniProt P15692-4 27-191); test: ELISA; growth factors coated at 100 nM, FabCol variants at 100 nM in solution, HRP-anti-human Fab [panel F]
T8 construct: mature; Purchased in mature form, not glycosylated

[10] = target: T9, placental growth factor (PlGF)-2 (human, UniProt P49763-3 19-170); test: as above
T9 construct: mature; Purchased in mature form
T9 sequence (looked up): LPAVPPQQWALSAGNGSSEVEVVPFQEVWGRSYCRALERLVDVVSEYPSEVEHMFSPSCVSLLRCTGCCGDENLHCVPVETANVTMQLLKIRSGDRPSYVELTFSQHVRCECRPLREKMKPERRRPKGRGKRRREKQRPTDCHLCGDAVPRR

[11] = target: T10, platelet-derived growth factor (PDGF)-BB (human, UniProt P01127 82-190); test: as above
T10 construct: mature; Purchased in mature form
T10 sequence (P01127 82-190): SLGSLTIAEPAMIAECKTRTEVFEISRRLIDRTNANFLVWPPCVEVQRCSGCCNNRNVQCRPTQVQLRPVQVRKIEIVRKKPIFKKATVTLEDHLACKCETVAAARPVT

[12] = target: T11, mVEGF-C (mouse, UniProt P97953); test: as above
T11 construct: also called mouse wild-type VEGF-C
T11 sequence (growth factor chain, looked up): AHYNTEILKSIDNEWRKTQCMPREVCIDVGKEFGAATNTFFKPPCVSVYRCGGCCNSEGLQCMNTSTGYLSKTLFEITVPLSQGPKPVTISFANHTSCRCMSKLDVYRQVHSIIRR

[13] = target: T2, placental growth factor (PlGF)-1; test: as above
[14] = target: T7, bovine type I collagen; test: ELISA on coated bovine type I collagen (10 µg/mL), FabCol titrated, HRP-anti-human Fab [panel C]
Description: as §3

[15] = target: T12, recombinant human BMP-2 (human, UniProt P12643 283-396); test: ELISA, rhBMP-2 coated 50 nM
T12 construct: also called rhBMP-2
T12 sequence (P12643 283-396 limits assumed): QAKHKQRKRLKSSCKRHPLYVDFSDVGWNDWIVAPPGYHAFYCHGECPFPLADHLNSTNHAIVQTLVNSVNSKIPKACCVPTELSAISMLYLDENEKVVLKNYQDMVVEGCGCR
Description: ELISA plates (NUNC MaxiSorp) were coated with 50 nM of recombinant human BMP-2 (CHO produced, R&D Systems, Minneapolis MN, USA) overnight at room temperature.

[16] = target: T7, bovine type I collagen; test: ELISA on coated bovine type I collagen (10 µg/mL), FabCol titrated 0.01-30 nM, HRP-anti-human Fab [panel C]
Description: as §3

[17] = target: T8, vascular endothelial growth factor …; test: ELISA, peptide coated, GF 1 µg/mL
How it was run: (§4)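 Wells coated with 10 μg/mL laminin α3/α4/α5 LG-domain peptides, BSA-coated wells as non-binding control, blocked with 2% BSA PBS-T. Recombinant human GFs added at 1 μg/mL; bound GF detected with GF-specific biotinylated antibody plus streptavidin-HRP (n=4, mean±SEM).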

[18] = target: T9, placental growth factor (PlGF)-2; test: ELISA, peptide coated, GF 1 µg/mL
How it was run: as §4

[19] = target: T10, platelet-derived growth factor (PDGF)-BB; test: ELISA, peptide coated, GF 1 µg/mL
How it was run: as §4

[20] = target: T13, fibroblast growth factor (FGF)-2 (human, UniProt P09038 143-288); test: ELISA, peptide coated, GF 1 µg/mL
T13 construct: mature; Purchased in mature form
T13 sequence (P09038 143-288): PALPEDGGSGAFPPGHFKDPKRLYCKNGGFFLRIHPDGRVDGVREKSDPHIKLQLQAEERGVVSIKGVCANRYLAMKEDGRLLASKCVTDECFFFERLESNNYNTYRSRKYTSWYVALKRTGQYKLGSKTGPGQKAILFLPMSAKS
How it was run: as §4

[21] = target: T1, vascular endothelial growth factor …; test: ELISA, peptide coated
How it was run: as §4

[22] = target: T2, placental growth factor (PlGF)-1; test: ELISA, peptide coated
How it was run: as §4

[23] = target: T14, recombinant human syndecan-2 (human, UniProt P34741 19-144, limits assumed); test: ELISA, peptide coated, anti-His detection
T14 construct: Histidine tag of unstated position and length
T14 sequence (P34741 19-144 limits assumed): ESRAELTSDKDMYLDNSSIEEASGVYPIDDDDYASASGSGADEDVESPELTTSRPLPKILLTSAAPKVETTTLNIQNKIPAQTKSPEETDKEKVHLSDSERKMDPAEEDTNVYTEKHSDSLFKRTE
Description: (§5) ELISA tests were performed as described above. In brief, ELISA plates were coated with 1 μg/mL laminin peptide (sequences are described in Table 1, chemically synthesized by Genscript) in PBS for 2 hrs at 37° C. 1 μg/mL of BSA served as non-binding protein control. After blocking with 2% BSA PBS-T solution, 1 μg/mL of the recombinant human syndecan-1, syndecan-2, syndecan-3, syndecan-4 (all syndecan proteins are histidine-tagged; SinoBiological) were added. Bound GF was detected with anti-histidine tag antibody (1:1000 dilution, BioLegend).

[24] = target: T15, recombinant human syndecan-4 (human, UniProt P31431 19-145, limits assumed); test: ELISA, peptide coated, anti-His detection
T15 construct: Histidine tag of unstated position and length
T15 sequence (looked up): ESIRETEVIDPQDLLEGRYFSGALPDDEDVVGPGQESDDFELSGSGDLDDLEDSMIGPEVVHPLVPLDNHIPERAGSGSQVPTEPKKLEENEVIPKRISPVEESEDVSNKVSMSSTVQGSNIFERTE
Description: as §5

[25] = target: T16, recombinant human syndecan-1 (human, UniProt P18827 23-254, limits assumed); test: ELISA, peptide coated, anti-His detection
T16 construct: Histidine tag of unstated position and length
T16 sequence (looked up): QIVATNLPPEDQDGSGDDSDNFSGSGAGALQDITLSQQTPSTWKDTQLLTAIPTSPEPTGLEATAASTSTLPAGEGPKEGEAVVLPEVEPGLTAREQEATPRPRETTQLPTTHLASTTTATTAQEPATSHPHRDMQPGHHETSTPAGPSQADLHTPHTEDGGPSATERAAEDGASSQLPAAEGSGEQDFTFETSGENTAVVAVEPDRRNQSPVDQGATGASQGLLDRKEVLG
Description: as §5

[26] = target: T17, recombinant human syndecan-3 (human, UniProt O75056 48-387, limits assumed); test: ELISA, peptide coated, anti-His detection
T17 construct: Histidine tag of unstated position and length
T17 sequence (O75056 48-387 limits assumed): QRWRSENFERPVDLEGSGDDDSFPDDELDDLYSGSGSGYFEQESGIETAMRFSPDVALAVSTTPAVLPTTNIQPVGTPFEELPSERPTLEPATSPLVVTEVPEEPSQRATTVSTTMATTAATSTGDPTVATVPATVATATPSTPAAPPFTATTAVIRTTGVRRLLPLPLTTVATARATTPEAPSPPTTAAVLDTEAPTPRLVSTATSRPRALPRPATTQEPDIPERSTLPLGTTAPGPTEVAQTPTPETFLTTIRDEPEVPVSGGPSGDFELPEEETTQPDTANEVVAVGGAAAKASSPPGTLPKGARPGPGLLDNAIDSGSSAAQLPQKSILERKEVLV
Description: as §5

B1: vWF A1 HBD peptide (23 residues) (peptide)
peptide: YIGLKDRKRPSELRRIASQVKYA
notes: Chemically synthesized (Genscript); also called vWF HBD; vWF A1 peptide
binding result [1]: no binding (tested: 1 µg/mL) | binding result [2]: no binding (tested: 1 µg/mL)

B2: recombinant human VEGF-A145 (ligand, UniProt P15692-6 27-171, looked up)
chain: APMAEGGGQNHHEVVKFMDVYQRSYCHPIETLVDIFQEYPDEIEYIFKPSCVPLMRCGGCCNDEGLECVPTEESNITMQIMRIKPHQGQHIGEMSFLQHNKCECRPKKDRARQEKKSVRGKGKGQKRKRKKSRYKSWSVCDKPRR
binding result [3]: binds | binding result [4]: binds | binding result [5]: no binding (tested: 1 µg/mL) | binding result [6]: no binding (tested: 1 µg/mL)

B3: FabCol (Fab)
light: EIVLTQSPGTLSLSPGERATLSCRASQSVSSSYLAWYQQKPGQAPRLLIYGASSRATGIPDRFSGSGSGTDFTLTISRLEPEDFAVYYCQQAIGFPQTFGQGTKVEIKRTVAAPSVFIFPPSDEQLKSGTASVVCLLNNFYPREAKVQWKVDNALQSGNSQESVTEQDSKDSTYSLSSTLTLSKADYEKHKVYACEVTHQGLSSPVTKSFNRGEC
heavy: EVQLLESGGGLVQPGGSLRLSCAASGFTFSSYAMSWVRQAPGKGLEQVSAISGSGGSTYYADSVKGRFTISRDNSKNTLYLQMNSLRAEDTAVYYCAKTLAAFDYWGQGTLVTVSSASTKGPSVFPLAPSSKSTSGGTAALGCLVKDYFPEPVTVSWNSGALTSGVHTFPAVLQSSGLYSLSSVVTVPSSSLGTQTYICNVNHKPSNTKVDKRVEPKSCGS
notes: Human Fab with human Fab constant regions; also called non-conjugated FabCol; anti-collagen I Fab (clone C11)
Kd [7]: 0.9 nM | Kd [8]: 0.3 nM | binding result [9]: no binding (tested: 100 nM (single concentration)) | binding result [10]: no binding (tested: 100 nM (single concentration)) | binding result [11]: no binding (tested: 100 nM (single concentration)) | binding result [12]: no binding (tested: 100 nM (single concentration)) | binding result [13]: no binding (tested: 100 nM (single concentration)) | EC50 (read off the curve) [14]: ~0.2 nM | binding result [15]: no binding (tested: 50 nM) | EC50 (read off the curve) [16]: ~1 nM

B4: laminin α5 3539-3550 peptide (LG5) (peptide)
peptide: TLPDVGLELEVR
notes: Chemically synthesized (Genscript)
binding result [17]: binds | binding result [18]: binds | binding result [19]: binds | binding result [20]: binds | binding result [21]: no binding (tested: 1 µg/mL) | binding result [22]: no binding (tested: 1 µg/mL) | binding result [23]: no binding (tested: 1 µg/mL) | binding result [24]: no binding (tested: 1 µg/mL) | binding result [25]: no binding (tested: 1 µg/mL) | binding result [26]: no binding (tested: 1 µg/mL)
